Measured values published in patent publication US20240352080A1 (Seagen, published 2024).

Biological target: T1, CD47 (UniProt Q08722 19-323, limits assumed)
T1 construct: whole, on cells; L540cy and SW780 are the cell lines named
Test: saturation binding, flow cytometry on CD47-expressing L540cy cells

EC50: 21 nM
B1: hB6H12.3 (unmasked parent) (antibody, V domains shown)
VH: EVQLLESGGGLVQPGGSLRLSCAASGFTFSGYGMSWVRQAPGKRLEWVATITSGGTYTYYPDSVKGRFTISRDNSKNTLYLQMNSLRAEDTAIYFCARSLAGNAMDYWGQGTLVTVSS
VL: EIVMTQSPDFQSVTPKEKVTLTCRASQTISDYLHWYQQKPDQSPKLLIKFASQSISGVPSRFSGSGSGSDFTLTINSLEAEDAATYYCQNGHGFPRTFGQGTKLEIKR
